Measured values published in patent publication US20140161803A1 (IFOM Fondazione Istituo FIRC di Oncologia Molecolare, priority 2011, published 2014).
Marks after values point to notes of the source that are not given here.

Biological target: T1, human uPAR (Homo sapiens, UniProt Q03405)
T1 construct: the mature protein (Leu^1-Gly^283) in bold; expressed in transfected cells; host or cells: HEK293 Flp-In T-REx (293)
Test: Real-time cell analyzer (xCELLigence) adhesion of 293/uPAR cells to VN
Type: cell-based
Settings: cell index one hour after addition, highest antibody concentration 300 nM
Description: The electric impedance (termed cell index, CI) was recorded at regular intervals. […] The curves show the normalized cell index (NCI, Y-axis) as a function of time (X-axis). All cell indexes were normalized to the cell index measured immediately prior to antibody addition. To determine IC50 values (panel D), the NCI measured one hour after antibody addition were calculated in % of the NCI for untreated cells at the same time point (ΔNCI, Y-axis) and graphed in function of antibody concentration (X-axis).
96-well E-Plates were coated with VN (5 μg/ml) or FN (10 μg/ml) over night at 4° C. Plates were washed with PBS, added 0.1 ml serum free medium (DMEM, 0.1% bovine serum albumin, 25 mM Hepes pH 7.0) and transferred to real-time cell analyzer instrument (xCELLigence SP, Roche Corp.). […] The plate was returned to the instrument and the cell index recorded every three minutes. […] After another 1-1.5 hours of measurements the plate was removed again and wells added (20 μl) of antibody diluted to yield the indicated final concentrations. The plate was returned to the instrument and measurements conducted every 3 minutes for 2 hours and then every 15 minutes for 18 hours.

T1 sequence (Q03405 23-305): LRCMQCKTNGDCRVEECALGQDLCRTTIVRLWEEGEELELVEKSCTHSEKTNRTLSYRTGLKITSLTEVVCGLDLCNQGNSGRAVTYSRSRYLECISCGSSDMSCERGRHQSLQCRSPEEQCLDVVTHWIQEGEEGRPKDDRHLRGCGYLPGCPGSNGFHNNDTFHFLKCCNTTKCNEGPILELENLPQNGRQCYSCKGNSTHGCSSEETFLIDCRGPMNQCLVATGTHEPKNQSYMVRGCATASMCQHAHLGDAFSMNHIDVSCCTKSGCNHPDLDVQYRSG

Substance: SMB: uPAR-binding N-terminal domain of VN, natural competitive antagonist of the uPAR/VN-interaction (DQESCKGRCTEGFNVDKKCQCDELCSYYQSCCTDYTAECKPQVT) [reference compound]
- % max inhibition (pro-uPA pre-treat.) (pro-uPA pre-treated 293/uPAR cells on VN): 100* %
- % max inhibition (veh. pre-treat.) (vehicle pre-treated 293/uPAR cells on VN): 100* %
